{
  "source": "patent US20230242624A1",
  "about": "(NEURIMMUNE, published 2023)",
  "binders": {"B1": {"name": "NI-607.649_B11 (antibody, V domains shown)", "VH": "QVQLVQSGAEVKKPGSSVKVSCKASGGTFSNYAISWVRQAPGQGLEWMGGIIPIFGTANYAQKFQGRVTITADESTSTAYMELSSLRSEDTAVYYCAGDRWYYDSSGYPTPDEYFQHWGQGTQVTVSS", "VL": "QSVLTQPPSVSGAPGQRVTISCTGSSSNIGAGYDVHWYQQLPGTAPKLLIYGNSNRPSGVPDRFSGSKSGTSASLAITGLQAEDEADYYCQSYDSSLSGVVFGGGTKLTVL"}, "B2": {"name": "NI-607.427_C5 (antibody, V domains shown)", "VH": "QVQLVQSGAEVKKPGASVKVSCKASGYTFTSYGISWVRQAPGQGLEWMGWISAYNGNTNYAQKLQGRVTMTTDTSTSTAYMELRSLRSDDTAVYYCARDNRAGWDQLDYWGQGTLVTVSS", "VL": "not shown"}, "B3": {"name": "NI-607.532_F9 (antibody, V domains shown)", "VH": "EVQLVESGGNLIQPGGSLRLSCAASGFTVSSNYMSWVRQAPGKGLEWVSVIYSGGSTYYADSVKGRFTISRDNSRNTLYLQMNSLRAEDTAVYFCARDRVVRGVRGNGMDVWGQGTTVTVSS", "VL": "AIRMTQSPSSLSASVGDRVTITCQASQDINIYLNWYQQRPGKAPKLLIYDASNLETGVPSRFSGSGSGTDFTFTISSLQPEDIATYYCHQYDNLPRTFGQGTKVDIK"}, "B4": {"name": "NI-607.529_B9 (antibody, V domains shown)", "VH": "QVQLQESGPGLVKPSETLSLTCTVSGGSISSSSYYWGWIRQPPGKGLEWIGNIYYSGSTYYNPSLKSRVTISVDTSKNQFSLKLNSVTAADTAVYFCARLLWLRGSYYWGQGTLVTVSS", "VL": "SYELTQPHSVSESPGKTVTISCTGSSGSIASNYVQWYQQRPGSAPTTVIYEDNQRPSGVPDRFSGSIDSSSNSASLTISGLKTEDEADYYCQSYDSSNWVFGGGTKLTVL"}, "B5": {"name": "NI-607.429_E4 (antibody, V domains shown)", "VH": "QVQLVESGGGLVQPGGSLRLSCAASGFTVSSNYMSWVRQAPGKGLEWVSVIYSGGSTFYADSVKGRFTISRDNSKNTLYLQMNSLRAEDTAVYYCARDLQESGMDVWGQGTTVTVSS", "VL": "DIQLTQSPSSVSASVGDRVTITCRASQGISSWLAWYQQKPGKAPKLLIYAASSLQSGVPSRFSGSGSGTDFTLTISSLQPEDFATYYCQQANSFPTFGQGTRLEIK"}, "B6": {"name": "NI-607.532_C11 (antibody, V domains shown)", "VH": "B5 VH with V12I, F58Y, Y79F, E101Y, S102Y", "VL": "DIQMTQSPSFLSASVGDRVTITCRASQGISSYLAWYQQKPGKAPKLLIYAASTLQSGVPSRFSGSGSGTEFTLTISSLQPEDFATYYCQQLDSYPPRDTFGQGTKVEIK"}, "B7": {"name": "NI-607.531_C8 (antibody, V domains shown)", "VH": "EVQLVESGGGVVQPGRSLRLSCTASGFTFSFYSVHWVRQAPGKGLEWVAVISYDGSTKYYADSVKGRFTISRDNSKNTLYLQMDSLRTEDTAVYYCASPPISPIPAAGTPLAYWGQGTLVTVSS", "VL": "not shown"}, "B8": {"name": "NI-607.532_D3 (antibody, V domains shown)", "VH": "EVQLVQSGAEVKRPGASVKVSCKASGYHFTDYYIHWVRQAPGQGLEWMGWINPNSGGTNYAQKFQGRVTMTRDTSISTAYMELSRLRSDDTAVYYCARVYYYDSSSSADYWGQGTLVTVSS", "VL": "not shown"}, "B9": {"name": "NI-607.429_E4 IgG4 (antibody, V domains shown)", "VH": "B5 VH", "VL": "B5 VL"}, "B10": {"name": "NI-607.532_D3 IgG4 (antibody, V domains shown)", "VH": "B8 VH", "VL": "not shown"}},
  "note": "Substitutions are numbered along the chain they refer to. “And” between values parts separate entries of the source, which are not always exact repeats. Equal values may be shown once.",
  "data": [
    {"molecular_target": "SARS-CoV-2 Spike (S) protein on vesicular stomatitis virus (VSV) pseudoviruses (SARS-CoV-2, UniProt P0DTC2 14-1273)", "assay": "cell-based or functional assay", "values": [
      {"binder": "B1", "IC50, pseudovirus entry assay (luciferase, HEK 293T-ACE2 cells)": "232 ng/mL and 1.53 nM"},
      {"binder": "B2", "IC50, pseudovirus entry assay (luciferase, HEK 293T-ACE2 cells)": "> 100 µg/mL"},
      {"binder": "B3", "IC50, pseudovirus entry assay (luciferase, HEK 293T-ACE2 cells)": "0.364 µg/mL"},
      {"binder": "B4", "IC50, pseudovirus entry assay (luciferase, HEK 293T-ACE2 cells)": "1.9 µg/mL"},
      {"binder": "B5", "IC50, pseudovirus entry assay (luciferase, HEK 293T-ACE2 cells)": "0.035 µg/mL"},
      {"binder": "B6", "IC50, pseudovirus entry assay (luciferase, HEK 293T-ACE2 cells)": "0.0872 µg/mL"},
      {"binder": "B7", "IC50, pseudovirus entry assay (luciferase, HEK 293T-ACE2 cells)": "86.4 ng/mL and 0.572 nM"},
      {"binder": "B8", "IC50, pseudovirus entry assay (luciferase, HEK 293T-ACE2 cells)": "2.1 µg/mL"}
    ]},
    {"molecular_target": "T1, SARS-CoV-2-S1 (RBD)-His protein (Trenzyme) (SARS-CoV-2, UniProt P0DTC2 319-541)", "assay": "not given", "units": {"EC50 (read off the curve)": "nM"}, "values": [
      {"binder": "B1", "EC50 (read off the curve)": "~4"}
    ]},
    {"molecular_target": "SARS-CoV-2 Spike Protein (S1+S2 ECD, His-Tag) (Sino 40589-V08B1) (SARS-CoV-2, UniProt P0DTC2 14-1213)", "assay": "not given", "units": {"EC50 (read off the curve)": "nM"}, "values": [
      {"binder": "B1", "EC50 (read off the curve)": "~0.5"}
    ]},
    {"molecular_target": "T1, SARS-CoV-2-S1 (RBD)-His protein …", "assay": "direct ELISA on coated RBD-His", "units": {"EC50": "nM"}, "values": [
      {"binder": "B1", "EC50": "~0.021"},
      {"binder": "B7", "EC50": "~0.017"}
    ]},
    {"molecular_target": "T1, SARS-CoV-2-S1 (RBD)-His protein …", "assay": "direct ELISA on coated RBD-His (FIG. 1C); IgG1", "units": {"EC50": "nM"}, "values": [
      {"binder": "B1", "EC50": "~0.013"}
    ]},
    {"molecular_target": "T1, SARS-CoV-2-S1 (RBD)-His protein …", "assay": "direct ELISA on coated RBD-His", "remark": "another data set of the same source", "units": {"EC50": "nM"}, "values": [
      {"binder": "B1", "EC50": 0.027},
      {"binder": "B2", "EC50": 0.014},
      {"binder": "B3", "EC50": 0.0025},
      {"binder": "B4", "EC50": 0.034},
      {"binder": "B5", "EC50": 0.0086},
      {"binder": "B6", "EC50": 0.013},
      {"binder": "B7", "EC50": 0.011},
      {"binder": "B8", "EC50": 0.0049}
    ]},
    {"molecular_target": "T1, SARS-CoV-2-S1 (RBD)-His protein …", "assay": "not given", "remark": "another data set of the same source", "units": {"IC50 (read off the curve)": "µg/mL"}, "values": [
      {"binder": "B1", "IC50 (read off the curve)": "~0.04"},
      {"binder": "B7", "IC50 (read off the curve)": "~0.03"}
    ]},
    {"molecular_target": "T1, SARS-CoV-2-S1 (RBD)-His protein …", "assay": "competition ELISA, RBD binding to coated ACE2; IgG1", "units": {"IC50": "µg/mL"}, "values": [
      {"binder": "B1", "IC50": "~0.052"},
      {"binder": "B7", "IC50": "~0.132"}
    ]},
    {"molecular_target": "T1, SARS-CoV-2-S1 (RBD)-His protein …", "assay": "competition ELISA, RBD binding to coated ACE2", "values": [
      {"binder": "B2", "IC50": "~2.15 µg/mL and ~14.3 nM"},
      {"binder": "B3", "IC50": "~0.668 µg/mL and ~4.4 nM"},
      {"binder": "B5", "IC50": "~0.345 µg/mL and ~2.3 nM"},
      {"binder": "B9", "IC50": "~0.699 µg/mL and ~4.65 nM"},
      {"binder": "B6", "IC50": "~1.12 µg/mL and ~7.44 nM"},
      {"binder": "B8", "IC50": "~0.457 µg/mL and ~3 nM"},
      {"binder": "B10", "IC50": "~0.457 µg/mL and ~3 nM"}
    ]},
    {"molecular_target": "T1, SARS-CoV-2-S1 (RBD)-His protein …", "assay": "competition ELISA, RBD binding to coated ACE2", "remark": "another data set of the same source", "units": {"IC50": "nM"}, "values": [
      {"binder": "B1", "IC50": 0.08},
      {"binder": "B2", "IC50": 2.88},
      {"binder": "B3", "IC50": 0.775},
      {"binder": "B4", "IC50": 0.116},
      {"binder": "B5", "IC50": 0.275},
      {"binder": "B6", "IC50": 0.826},
      {"binder": "B7", "IC50": 0.153},
      {"binder": "B8", "IC50": 0.917}
    ]},
    {"molecular_target": "T1, SARS-CoV-2-S1 (RBD)-His protein …", "assay": "not given", "remark": "another data set of the same source", "units": {"EC50": "nM"}, "values": [
      {"binder": "B1", "EC50": 0.036}
    ]},
    {"molecular_target": "T2, BSA (Sigma-Aldrich) (bovine, UniProt P02769 25-607)", "T2 construct": "also called bovine serum albumin; BSA control", "assay": "direct ELISA on coated BSA", "values": [
      {"binder": "B2", "binding result": "no binding (tested: 400 nM)"},
      {"binder": "B4", "binding result": "no binding (tested: 400 nM)"},
      {"binder": "B5", "binding result": "no binding (tested: 400 nM)"},
      {"binder": "B6", "binding result": "no binding (tested: 400 nM)"},
      {"binder": "B8", "binding result": "no binding (tested: 400 nM)"}
    ]},
    {"molecular_target": "T1, SARS-CoV-2-S1 (RBD)-His protein …", "assay": "iQue flow cytometry, antigen-coated beads", "units": {"EC50": "nM"}, "values": [
      {"binder": "B1", "EC50": 1.4},
      {"binder": "B2", "EC50": 3.2},
      {"binder": "B3", "EC50": 3.3},
      {"binder": "B4", "EC50": 1},
      {"binder": "B5", "EC50": 1.9},
      {"binder": "B6", "EC50": 2.4},
      {"binder": "B7", "EC50": 1.2},
      {"binder": "B8", "EC50": 1}
    ]},
    {"molecular_target": "recombinant SARS-CoV Spike protein (RBD, His tag) (SARS-CoV, UniProt P59594 306-527)", "assay": "iQue flow cytometry, antigen-coated beads", "units": {"EC50": "nM"}, "values": [
      {"binder": "B1", "EC50": 1.7},
      {"binder": "B2", "EC50": 3},
      {"binder": "B3", "EC50": 1000},
      {"binder": "B4", "EC50": 20},
      {"binder": "B7", "EC50": 1000},
      {"binder": "B8", "EC50": 1000}
    ]},
    {"molecular_target": "T3, MERS-CoV Spike protein fragment (RBD, aa 367-606, His tag) (MERS-CoV, UniProt K9N5Q8 367-606)", "T3 sequence": "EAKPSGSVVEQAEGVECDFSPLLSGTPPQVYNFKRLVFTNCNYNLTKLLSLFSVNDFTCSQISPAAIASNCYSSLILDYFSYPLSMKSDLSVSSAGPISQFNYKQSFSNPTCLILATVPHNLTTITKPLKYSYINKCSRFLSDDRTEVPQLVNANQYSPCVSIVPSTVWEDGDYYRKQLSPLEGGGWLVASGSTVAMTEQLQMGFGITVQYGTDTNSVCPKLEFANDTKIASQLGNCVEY", "assay": "iQue flow cytometry, antigen-coated beads", "units": {"EC50": "nM"}, "values": [
      {"binder": "B1", "EC50": 1000},
      {"binder": "B2", "EC50": 600},
      {"binder": "B3", "EC50": 1000},
      {"binder": "B4", "EC50": 300},
      {"binder": "B5", "EC50": 200},
      {"binder": "B6", "EC50": 1000},
      {"binder": "B7", "EC50": 1000},
      {"binder": "B8", "EC50": 1000}
    ]}
  ]
}
